In assay [1] the target is Factor H binding protein, variant group 1 (V1.p1), wild type (Neisseria meningitidis) (UniProt Q9JXV4). The experiment in a line: SPR.
The target of assay [2] is V1 fHbp with Val272 replaced by Ala (Neisseria meningitidis). Description: SPR.
For assay [3], the target named is V2 fHbp Thr304Ala (Neisseria meningitidis). The experiment in a line: SPR.
Assay [4] has as its target Factor H binding protein, variant group 2 (V2.p21), wild type (Neisseria meningitidis) (UniProt E6MV22). The experiment in a line: SPR.
Assay [5] deals with V1 fHbp E283A (Neisseria meningitidis). The experiment in a line: SPR.
Assay [6] addresses V1 fHbp I311A (Neisseria meningitidis). Description: SPR.
Assay [7] addresses V3 fHbp P106A (Neisseria meningitidis). The experiment in a line: SPR.
The target of assay [8] is Factor H binding protein, variant group 3 (V3.p28), wild type (Neisseria meningitidis) (UniProt E6MV22). Description: SPR.
Assay [9] has as its target V2 fHbp Glu283Ala (Neisseria meningitidis). The experiment in a line: SPR.
In assay [10] the target is V3 fHbp with Val272 replaced by Ala (Neisseria meningitidis). Description: SPR.
Assay [11] has as its target V2 fHbp with Leu195 replaced by Ala (Neisseria meningitidis). Description: SPR.
Assay [12] addresses V2 fHbp with Glu313 replaced by Ala (Neisseria meningitidis). Description: SPR.
The target of assay [13] is V2 fHbp with Val272 replaced by Ala (Neisseria meningitidis). The experiment in a line: SPR.
The target in assay [14] is V2 fHbp Thr304Glu (Neisseria meningitidis). The experiment in a line: SPR.
Assay [15] deals with V2 fHbp with Ala at position 157 (Neisseria meningitidis) (UniProt E6MV22). Description: SPR.
Assay [16] has as its target Factor H binding protein, variant group 3 (V3.p28), wild type (UniProt E6MV22). The experiment in a line: SPR.
Assay [17] deals with Factor H binding protein, variant group 2 (V2.p21), wild type (UniProt E6MV22). Description: SPR.
Assay [18] deals with T1, Factor H binding protein, variant group 1 (V1.p1), wild type (Neisseria meningitidis, UniProt Q9JXV4 20-274).
T1 construct: also called V1 fHbp; fHbp
T1 sequence: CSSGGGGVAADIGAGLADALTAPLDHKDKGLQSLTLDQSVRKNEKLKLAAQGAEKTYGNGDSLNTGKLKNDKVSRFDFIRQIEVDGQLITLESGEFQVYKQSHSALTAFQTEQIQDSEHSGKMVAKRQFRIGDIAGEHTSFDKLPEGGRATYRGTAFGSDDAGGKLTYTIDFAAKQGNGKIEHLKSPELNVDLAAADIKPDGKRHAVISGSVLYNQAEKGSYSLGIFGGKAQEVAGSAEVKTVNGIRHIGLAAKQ
Description: not stated; dose response curve of mfH67 binding V1 fHbp (Fig. S2). The note with it: both partners purified.

For assay [19], the target named is T1, Factor H binding protein, variant group …. Description: SPR. The note with it: both partners purified.

“human fH67 with His337 and Arg341 replaced by the murine residues (domain or fragment)” had a Kd in assay [1] of 7000 nM.

Consider “human factor H CCP domains 6 and 7 (domain or fragment)”, for which the fold reduction in binding relative to wild type in assay [2], in assay [10], in assay [11], in assay [12] and in [13] was greater than 5 fold each time. For the same molecule, the fold increase in KD relative to wild type in [3] was 10 fold; in [5], 7 fold; in assay [9], 40 fold; in assay [14] it was 200 fold. The Kd in [4] was determined as 1.9 nM; in assay [6], 1300 nM; in [1], 2.2 nM; in assay [8], 2.8 nM. In [7], this molecule displayed a fold increase in strength of binding relative to wild type of 100 fold. Moreover, the fold increase in binding relative to wild type in assay [15] amounted to 5 fold.

In the case of “human factor H CCP domains 6 and 7 K351R; Y352K”, the figures for the Kd in [16] and in [17] were 33000 nM and 44000 nM, respectively.

B1: murine factor H CCP domains 6 and 7 (domain or fragment)
chain: LKPCEFPQFKYGRLYYEESLRPNFPVSIGNKYSYKCDNGFSPPSGYSWDYLRCTAQGWEPEVPCVRKCVFHYVENGDSAYWEKVYVQGQSLKVQCYNGYSLQNGQDTMTCTENGWSPPPKCI
notes: also called mfH67; mfH; source: cloned into pET-15b; expressed and purified using the method described previously [40]
As for B1, the “fold higher KD than hfH” value in [18] was greater than 10000 fold.

B2: human fH67 with Lys351 and Tyr352 replaced by the murine residues (domain or fragment)
chain: TLKPCDYPDIKHGGLYHENMRRPYFPVAVGRKYSYYCDEHFETPSGSYWDHIHCTQDGWSPAVPCLRKCYFPYLENGYNQNHGRKFVQGKSIDVACHPGYALPKAQTTVTCMENGWSPTPRCI
With B2, the Kd in assay [19] came to 2800 ± 500 nM.

(Values after paper PMC3486911 (PLoS Pathogens, 2012).)
